Assay: Body weight, haematological evaluation and flow cytometry of tumor-bearing mice on supplemented diets with chemotherapy (Example 2)
Type: in vivo, C57BL/6 (H-2b) mice
Method: Mice. […] The animals were distributed into 7 different group diets. There was a control group that received the diet AIN 93 for adult rodents (maintenance). […] Control animals without chemotherapeutic treatment were run in parallel for all tested diets. Body weight was assessed every two days. Blood samples were obtained at day 2, 4 and 10 after the chemo-treatment and at sacrifice (14 or 28 days). An autopsy was performed and tumor mass was assessed.
Haematological evaluation.
Flow cytometric analysis.

B1: lactoferrin: diet with 25 mg/day of lactoferrin (protein, UniProt P24627 20-708, looked up)
Lactotransferrin: APRKNVRWCTISQPEWFKCRRWQWRMKKLGAPSITCVRRAFALECIRAIAEKKADAVTLDGGMVFEAGRDPYKLRPVAAEIYGTKESPQTHYYAVAVVKKGSNFQLDQLQGRKSCHTGLGRSAGWIIPMGILRPYLSWTESLEPLQGAVAKFFSASCVPCIDRQAYPNLCQLCKGEGENQCACSSREPYFGYSGAFKCLQDGAGDVAFVKETTVFENLPEKADRDQYELLCLNNSRAPVDAFKECHLAQVPSHAVVARSVDGKEDLIWKLLSKAQEKFGKNKSRSFQLFGSPPGQRDLLFKDSALGFLRIPSKVDSALYLGSRYLTTLKNLRETAEEVKARYTRVVWCAVGPEEQKKCQQWSQQSGQNVTCATASTTDDCIVLVLKGEADALNLDGGYIYTAGKCGLVPVLAENRKSSKHSSLDCVLRPTEGYLAVAVVKKANEGLTWNSLKDKKSCHTAVDRTAGWNIPMGLIVNQTGSCAFDEFFSQSCAPGADPKSRLCALCAGDDQGLDKCVPNSKEKYYGYTGAFRCLAEDVGDVAFVKNDTVWENTNGESTADWAKNLNREDFRLLCLDGTRKPVTEAQSCHLAVAPNHAVVSRSDRAAHVKQVLLHQQALFGKNGKNCPDKFCLFKSETKNLLFNDNTECLAKLGGRPTYEEYLGTEYVTAIANLKKCSTSPLLEACAFLTR
Chemotherapy treated group compared to the control, FIG. 11
  toxicity (bone marrow): less toxicity
Following chemotherapy, supplemented diet
  Global lymphocyte population: less depressed following chemotherapy
Oxaliplatin treated animals, supplemented diet
  leukocytic increase: tended to be higher
Second phase (tumor-induced toxicity)
  immune cell population / concentration: increase in their immune cell population

Reference: US20110229521A1, “NUTRITIONAL SUPPORT OF THE IMMUNE SYSTEM DURING ANTI-CANCER TREATMENT” (priority 2008, published 2011)
